For two molecules, binding signal results are on record in paper PMC3424535.

The target in this series is T1, McrB-N (N-terminal DNA-binding domain of McrB) (Escherichia coli, UniProt P15005 1-161).
T1 sequence: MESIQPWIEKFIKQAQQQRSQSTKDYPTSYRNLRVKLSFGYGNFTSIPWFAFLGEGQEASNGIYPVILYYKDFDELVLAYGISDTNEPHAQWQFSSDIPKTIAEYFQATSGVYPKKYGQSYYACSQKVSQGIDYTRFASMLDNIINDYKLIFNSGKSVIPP
Briefly: pyrrolo-dC fluorescence.

B1: p/p (dsDNA)
DNA 1: ATCTCTCTATTCACCGGTATTCTCTCTTTC
DNA 2: GAAAGAGAGAATACCGGTGAATAGAGAGAT
modifications: pyrrolo-dC at position 14 of each strand (first C of ACCGGT)
In the case of B1, the binding signal was 2.6 fold increase of pyrrolo-dC fluorescence (not affinity).

B2: p/m (dsDNA)
DNA 1: B1 DNA 1
DNA 2: B1 DNA 2
modifications: pyrrolo-dC at position 14 of strand 1; 5mC at position 14 of strand 2
For B2, the binding signal was ~4 fold increase of pyrrolo-dC fluorescence (not affinity).
